Consider one variant from PMC6224091.

The labels stand for the following.
B1: V5-Par6A (wild type) [not stated] / YFP-Tuba [not stated] (parent)
chain 1: MARPQRTPARSPDSIVEVKSKFDAEFRRFALPRASVSGFQEFSRLLRAVHQIPGLDVLLGYTDAHGDLLPLTNDDSLHRALASGPPPLRLLVQKRAEADSSGLAFASNSLQRRKKGLLLRPVAPLRTRPPLLISLPQDFRQVSSVIDVDLLPETHRRVRLHKHGSDRPLGFYIRDGMSVRVAPQGLERVPGIFISRLVRGGLAESTGLLAVSDEILEVNGIEVAGKTLDQVTDMMVANSHNLIVTVKPANQRNNVVRGASGRLTGPPSAGPGPAEPDSDDDSSDLVIENRQPPSSNGLSQGPPCWDLHPGCRHPGTRSSLPSLDDQEQASSGWGSRIRGDGSGFSL
chain 2: MEAGSVVRAIFDFCPSVSEELPLFVGDIIEVLAVVDEFWLLGKKEDVTGQFPSSFVEIVTIPSLKEGERLFVCICEFTSQELDNLPLHRGDLVILDGIPTAGWLQGRSCWGARGFFPSSCVRELCLSSQSRQWHSQSALFQIPEYSMGQARALMGLSAQLDEELDFREGDVITIIGVPEPGWFEGELEGRRGIFPEGFVELLGPLRTVDESVSSGNQDDCIVNGEVDTPVGEEEIGPDEDEEEPGTYGVALYRFQALEPNELDFEVGDKIRILATLEDGWLEGSLKGRTGIFPYRFVKLCPDTRVEETMALPQEGSLARIPETSLDCLENTLGVEEQRHETSDHEAEEPDCIISEAPTSPLGHLTSEYDTDRNSYQDEDTAGGPPRSPGVEWEMPLATDSPTSDPTEVVNGISSQPQVPFHPNLQKSQYYSTVGGSHPHSEQYPDLLPLEARTRDYASLPPKRMYSQLKTLQKPVLPLYRGSSVSASRVVKPRQSSPQLHNLASYTKKHHTSSVYSISERLEMKPGPQAQGLVMEAATHSQGDGSTDLDSKLTQQLIEFEKSLAGPGTEPDKILRHFSIMDFNSEKDIVRGSSKLITEQELPERRKALRPPPPRPCTPVSTSPHLLVDQNLKPAPPLVVRPSRPAPLPPSAQQRTNAVSPKLLSRHRPTCETLEKEGPGHMGRSLDQTSPCPLVLVRIEEMERDLDMYSRAQEELNLMLEEKQDESSRAETLEDLKFCESNIESLNMELQQLREMTLLSSQSSSLVAPSGSVSAENPEQRMLEKRAKVIEELLQTERDYIRDLEMCIERIMVPMQQAQVPNIDFEGLFGNMQMVIKVSKQLLAALEISDAVGPVFLGHRDELEGTYKIYCQNHDEAIALLEIYEKDEKIQKHLQDSLADLKSLYNEWGCTNYINLGSFLIKPVQRVMRYPLLLMELLNSTPESHPDKVPLTNAVLAVKEINVNINEYKRRKDLVLKYRKGDEDSLMEKISKLNIHSIIKKSNRVSSHLKHLTGFAPQIKDEVFEETEKNFRMQERLIKSFIRDLSLYLQHIRESACVKVVAAVSMWDVCMERGHRDLEQFERVHRYISDQLFTNFKERTERLVISPLNQLLSMFTGPHKLVQKRFDKLLDFYNCTERAEKLKDKKTLEELQSARNNYEALNAQLLDELPKFHQYAQGLFTNCVHGYAEAHCDFVHQALEQLKPLLSLLKVAGREGNLIAIFHEEHSRVLQQLQVFTFFPESLPATKKPFERKTIDRQSARKPLLGLPSYMLQSEELRASLLARYPPEKLFQAERNFNAAQDLDVSLLEGDLVGVIKKKDPMGSQNRWLIDNGVTKGFVYSSFLKPYNPRRSHSDASVGSHSSTESEHGSSSPRFPRQNSGSTLTFNPSSMAVSFTSGSCQKQPQDASPPPKECDQGTLSASLNPSNSESSPSRCPSDPDSTSQPRSGDSADVARDVKQPTATPRSYRNFRHPEIVGYSVPGRNGQSQDLVKGCARTAQAPEDRSTEPDGSEAEGNQVYFAVYTFKARNPNELSVSANQKLKILEFKDVTGNTEWWLAEVNGKKGYVPSNYIRKTEYT

In the assay the parent is B1. The assay is described as follows: co-immunoprecipitation (IP: GFP), quantified blot. As to conditions: with YFP-Tuba; HEK293T cells; co-expressed with HA-Cdc42(G12V); n = 4; parent: 1; read off a plot.
As to chain 1 I133A S134A, the ratio to parent amounted to 0.73.
